The supplement of paper PMC9112550, “Optimization of the antimicrobial peptide Bac7 by deep mutational scanning” (BMC Biology, 2022)
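Also: peptides expressed intracellularly from a pBAD plasmid library in pooled LB shake-flask culture, induced with 0.3% L-arabinose, DNA abundance read by NGS, three biological replicates, DESeq2 with apeglm shrinkage.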

These sequences were tested on Escherichia coli TOP10 (assay: shrunken log2 fold change of peptide-encoding DNA abundance (4.5 h post-induction vs induction); higher = less antimicrobial activity (less host growth inhibition)). Settings: time post-induction: 4.5 h; library: site-saturation at positions 5, 18, 19, 20.
In the case of RRIRIRPPRLPRPRPRPLCYPRP, the “shrunken log2 fold change” value is reported as -1.07. In the case of RRIRGRPPRLPRPRPRPKRFPRP, the “shrunken log2 fold change” value is reported as -0.0242. In the case of RRIRQRPPRLPRPRPRPTLAPRP, the “shrunken log2 fold change” value is reported as 0.783. RRIRNRPPRLPRPRPRPHDFPRP was tested, and the “shrunken log2 fold change” value was 0.137. For RRIRVRPPRLPRPRPRPFHTPRP, the “shrunken log2 fold change” value was -1.18. For RRIRGRPPRLPRPRPRPKNQPRP, the “shrunken log2 fold change” value was 0.551. With RRIRDRPPRLPRPRPRPQIYPRP the “shrunken log2 fold change” value was -0.114. For RRIRRRPPRLPRPRPRPLMCPRP, the “shrunken log2 fold change” value was -0.13. RRIRWRPPRLPRPRPRPVRDPRP was tested, and the “shrunken log2 fold change” value was 0.687. With RRIRARPPRLPRPRPRPKVPPRP the “shrunken log2 fold change” value was 0.412. With RRIRHRPPRLPRPRPRPFDEPRP the “shrunken log2 fold change” value was -0.173. With RRIRDRPPRLPRPRPRPCKHPRP the “shrunken log2 fold change” value was -0.181. For RRIRMRPPRLPRPRPRPLIMPRP, the “shrunken log2 fold change” value was -0.0525. RRIRVRPPRLPRPRPRPSPYPRP was tested, and the “shrunken log2 fold change” value was -0.409. For RRIRNRPPRLPRPRPRPCMRPRP, the “shrunken log2 fold change” value was 0.0891. With RRIRHRPPRLPRPRPRPTAKPRP the “shrunken log2 fold change” value was 0.0616. RRIRQRPPRLPRPRPRPMQRPRP was tested, and the “shrunken log2 fold change” value was 0.416. RRIRWRPPRLPRPRPRPPMHPRP was tested, and the “shrunken log2 fold change” value was 0.429. With RRIRTRPPRLPRPRPRPYDTPRP the “shrunken log2 fold change” value was -0.661. In the case of RRIRERPPRLPRPRPRPDFRPRP, the “shrunken log2 fold change” value is reported as -0.0858. For RRIRHRPPRLPRPRPRPDTMPRP, the “shrunken log2 fold change” value was 0.031. For RRIRVRPPRLPRPRPRPMEMPRP, the “shrunken log2 fold change” value was -0.0249. In the case of RRIRYRPPRLPRPRPRPASWPRP, the “shrunken log2 fold change” value is reported as 0.299. For RRIRMRPPRLPRPRPRPTKPPRP, the “shrunken log2 fold change” value was 0.0618. With RRIRTRPPRLPRPRPRPPVAPRP the “shrunken log2 fold change” value was 0.428. In the case of RRIRSRPPRLPRPRPRPPGYPRP, the “shrunken log2 fold change” value is reported as 0.0642. RRIRLRPPRLPRPRPRPKLQPRP was tested, and the “shrunken log2 fold change” value was 0.356. For RRIRERPPRLPRPRPRPRAIPRP, the “shrunken log2 fold change” value was 0.0706. In the case of RRIRDRPPRLPRPRPRPAHDPRP, the “shrunken log2 fold change” value is reported as 0.414. For RRIRIRPPRLPRPRPRPYVTPRP, the “shrunken log2 fold change” value was -0.526. In the case of RRIRERPPRLPRPRPRPRHRPRP, the “shrunken log2 fold change” value is reported as -0.114. For RRIRARPPRLPRPRPRPIWNPRP, the “shrunken log2 fold change” value was -0.0575. For RRIRVRPPRLPRPRPRPFIHPRP, the “shrunken log2 fold change” value was -0.104. With RRIRGRPPRLPRPRPRPHHQPRP the “shrunken log2 fold change” value was -0.185. With RRIRTRPPRLPRPRPRPNNQPRP the “shrunken log2 fold change” value was -0.665. In the case of RRIRWRPPRLPRPRPRPNTIPRP, the “shrunken log2 fold change” value is reported as -0.492. With RRIRQRPPRLPRPRPRPGLKPRP the “shrunken log2 fold change” value was 0.0245. With RRIRWRPPRLPRPRPRPHKVPRP the “shrunken log2 fold change” value was -0.431. For RRIRWRPPRLPRPRPRPMTRPRP, the “shrunken log2 fold change” value was 0.0972. With RRIRTRPPRLPRPRPRPWEGPRP the “shrunken log2 fold change” value was 0.0154. In the case of RRIRARPPRLPRPRPRPKYWPRP, the “shrunken log2 fold change” value is reported as 0.233. For RRIRQRPPRLPRPRPRPHEVPRP, the “shrunken log2 fold change” value was -0.0426. For RRIRPRPPRLPRPRPRPSAPPRP, the “shrunken log2 fold change” value was 0.017. In the case of RRIRNRPPRLPRPRPRPWNRPRP, the “shrunken log2 fold change” value is reported as 0.0601. With RRIRERPPRLPRPRPRPWLFPRP the “shrunken log2 fold change” value was -0.0723. In the case of RRIRMRPPRLPRPRPRPLKSPRP, the “shrunken log2 fold change” value is reported as 0.11. In the case of RRIRGRPPRLPRPRPRPGYRPRP, the “shrunken log2 fold change” value is reported as 0.189. With RRIRERPPRLPRPRPRPNYFPRP the “shrunken log2 fold change” value was -0.57. In the case of RRIRCRPPRLPRPRPRPCKSPRP, the “shrunken log2 fold change” value is reported as -0.0591. With RRIRGRPPRLPRPRPRPTKEPRP the “shrunken log2 fold change” value was 0.439. In the case of RRIRARPPRLPRPRPRPNILPRP, the “shrunken log2 fold change” value is reported as -0.00643. In the case of RRIRSRPPRLPRPRPRPTHKPRP, the “shrunken log2 fold change” value is reported as 0.202. With RRIRSRPPRLPRPRPRPIHTPRP the “shrunken log2 fold change” value was -0.112. In the case of RRIRKRPPRLPRPRPRPSTTPRP, the “shrunken log2 fold change” value is reported as 0.162. With RRIRPRPPRLPRPRPRPYWQPRP the “shrunken log2 fold change” value was 0.0184. In the case of RRIRVRPPRLPRPRPRPAMDPRP, the “shrunken log2 fold change” value is reported as 0.21. RRIRFRPPRLPRPRPRPKFIPRP was tested, and the “shrunken log2 fold change” value was -1.02. For RRIRKRPPRLPRPRPRPRKMPRP, the “shrunken log2 fold change” value was 0.588. With RRIRTRPPRLPRPRPRPQPVPRP the “shrunken log2 fold change” value was -0.0826. With RRIRERPPRLPRPRPRPCVSPRP the “shrunken log2 fold change” value was -0.0843. With RRIRNRPPRLPRPRPRPPTPPRP the “shrunken log2 fold change” value was 0.56. In the case of RRIRPRPPRLPRPRPRPLEAPRP, the “shrunken log2 fold change” value is reported as 0.249. RRIRCRPPRLPRPRPRPAKDPRP was tested, and the “shrunken log2 fold change” value was 0.021. With RRIRHRPPRLPRPRPRPTMRPRP the “shrunken log2 fold change” value was 0.402. With RRIRVRPPRLPRPRPRPVQDPRP the “shrunken log2 fold change” value was 0.0752. RRIRLRPPRLPRPRPRPLNCPRP was tested, and the “shrunken log2 fold change” value was -0.156. In the case of RRIRDRPPRLPRPRPRPTDFPRP, the “shrunken log2 fold change” value is reported as -0.0352. For RRIRRRPPRLPRPRPRPSWTPRP, the “shrunken log2 fold change” value was 0.46. RRIRWRPPRLPRPRPRPIKDPRP was tested, and the “shrunken log2 fold change” value was 0.211. For RRIRYRPPRLPRPRPRPAEWPRP, the “shrunken log2 fold change” value was 0.00902. In the case of RRIRGRPPRLPRPRPRPPGRPRP, the “shrunken log2 fold change” value is reported as 1.35. RRIRQRPPRLPRPRPRPWFDPRP was tested, and the “shrunken log2 fold change” value was -0.253. With RRIRKRPPRLPRPRPRPLALPRP the “shrunken log2 fold change” value was 0.536. RRIRRRPPRLPRPRPRPDEDPRP was tested, and the “shrunken log2 fold change” value was 0.219. With RRIRCRPPRLPRPRPRPLGGPRP the “shrunken log2 fold change” value was 0.281. With RRIRCRPPRLPRPRPRPAQTPRP the “shrunken log2 fold change” value was 0.0194. For RRIRDRPPRLPRPRPRPFDWPRP, the “shrunken log2 fold change” value was 0.374. In the case of RRIRPRPPRLPRPRPRPHIPPRP, the “shrunken log2 fold change” value is reported as -0.492. RRIRKRPPRLPRPRPRPNRPPRP was tested, and the “shrunken log2 fold change” value was 0.0563. RRIRERPPRLPRPRPRPETYPRP was tested, and the “shrunken log2 fold change” value was -0.152. RRIRDRPPRLPRPRPRPWFWPRP was tested, and the “shrunken log2 fold change” value was -0.0329. RRIRLRPPRLPRPRPRPGQCPRP was tested, and the “shrunken log2 fold change” value was -0.0373. With RRIRDRPPRLPRPRPRPMIEPRP the “shrunken log2 fold change” value was 0.0558. In the case of RRIRDRPPRLPRPRPRPGNNPRP, the “shrunken log2 fold change” value is reported as -0.125. In the case of RRIRLRPPRLPRPRPRPEMRPRP, the “shrunken log2 fold change” value is reported as 0.0659. In the case of RRIRSRPPRLPRPRPRPKSCPRP, the “shrunken log2 fold change” value is reported as 0.61. With RRIRERPPRLPRPRPRPEQFPRP the “shrunken log2 fold change” value was -0.0286. For RRIRHRPPRLPRPRPRPANKPRP, the “shrunken log2 fold change” value was -0.291. For RRIRARPPRLPRPRPRPHWTPRP, the “shrunken log2 fold change” value was -0.0108. RRIRHRPPRLPRPRPRPERMPRP was tested, and the “shrunken log2 fold change” value was -0.0151. In the case of RRIRVRPPRLPRPRPRPTPYPRP, the “shrunken log2 fold change” value is reported as -0.0655. For RRIRMRPPRLPRPRPRPSDQPRP, the “shrunken log2 fold change” value was -0.198. In the case of RRIRERPPRLPRPRPRPADDPRP, the “shrunken log2 fold change” value is reported as 0.000221. In the case of RRIRTRPPRLPRPRPRPWPKPRP, the “shrunken log2 fold change” value is reported as 0.218. RRIRYRPPRLPRPRPRPDRVPRP was tested, and the “shrunken log2 fold change” value was -0.234. With RRIRKRPPRLPRPRPRPEQGPRP the “shrunken log2 fold change” value was 0.199. RRIRGRPPRLPRPRPRPADFPRP was tested, and the “shrunken log2 fold change” value was 0.149. With RRIRFRPPRLPRPRPRPEQMPRP the “shrunken log2 fold change” value was 0.19. For RRIRIRPPRLPRPRPRPQKVPRP, the “shrunken log2 fold change” value was -0.102. RRIRLRPPRLPRPRPRPGFMPRP was tested, and the “shrunken log2 fold change” value was -0.382. RRIRKRPPRLPRPRPRPGITPRP was tested, and the “shrunken log2 fold change” value was 0.266. In the case of RRIRVRPPRLPRPRPRPFMRPRP, the “shrunken log2 fold change” value is reported as 0.184. In the case of RRIRPRPPRLPRPRPRPHMNPRP, the “shrunken log2 fold change” value is reported as -0.6. For RRIRSRPPRLPRPRPRPWEHPRP, the “shrunken log2 fold change” value was 0.089. In the case of RRIRSRPPRLPRPRPRPAETPRP, the “shrunken log2 fold change” value is reported as 0.114. For RRIRYRPPRLPRPRPRPPDLPRP, the “shrunken log2 fold change” value was -0.212. RRIRKRPPRLPRPRPRPIRHPRP was tested, and the “shrunken log2 fold change” value was 0.132. With RRIRPRPPRLPRPRPRPDVYPRP the “shrunken log2 fold change” value was -0.194. With RRIRARPPRLPRPRPRPWTYPRP the “shrunken log2 fold change” value was 0.0209.
